Assay results published in paper PMC11328874 (2024).

B1: HA-tagged B55α (HA-B55α), wild type [human] / FLAG-Eya3 (human), wild type [human] (parent complex)
chain 1: MAGAGGGNDIQWCFSQVKGAVDDDVAEADIISTVEFNHSGELLATGDKGGRVVIFQQEQENKIQSHSRGEYNVYSTFQSHEPEFDYLKSLEIEEKINKIRWLPQKNAAQFLLSTNDKTIKLWKISERDKRPEGYNLKEEDGRYRDPTTVTTLRVPVFRPMDLMVEASPRRIFANAHTYHINSISINSDYETYLSADDLRINLWHLEITDRSFNIVDIKPANMEELTEVITAAEFHPNSCNTFVYSSSKGTIRLCDMRASALCDRHSKLFEEPEDPSNRSFFSEIISSISDVKFSHSGRYMMTRDYLSVKIWDLNMENRPVETYQVHEYLRSKLCSLYENDCIFDKFECCWNGSDSVVMTGSYNNFFRMFDRNTKRDITLEASRENNKPRTVLKPRKVCASGKRKKDEISVDSLDFNKKILHTAWHPKENIIAVATTNNLYIFQDKVN
chain 2: MEEEQDLPEQPVKKAKMQESGEQTISQVSNPDVSDQKPETSSLASNLPMSEEIMTCTDYIPRSSNDYTSQMYSAKPYAHILSVPVSETAYPGQTQYQTLQQTQPYAVYPQATQTYGLPPFGALWPGMKPESGLIQTPSPSQHSVLTCTTGLTTSQPSPAHYSYPIQASSTNASLISTSSTIANIPAAAVASISNQDYPTYTILGQNQYQACYPSSSFGVTGQTNSDAESTTLAATTYQSEKPSVMAPAPAAQRLSSGDPSTSPSLSQTTPSKDTDDQSRKNMTSKNRGKRKADATSSQDSELERVFLWDLDETIIIFHSLLTGSYAQKYGKDPTVVIGSGLTMEEMIFEVADTHLFFNDLEECDQVHVEDVASDDNGQDLSNYSFSTDGFSGSGGSGSHGSSVGVQGGVDWMRKLAFRYRKVREIYDKHKSNVGGLLSPQRKEALQRLRAEIEVLTDSWLGTALKSLLLIQSRKNCVNVLITTTQLVPALAKVLLYGLGEIFPIENIYSATKIGKESCFERIVSRFGKKVTYVVIGDGRDEEIAAKQHNMPFWRITNHGDLVSLHQALELDFL

Variants of: B1
Test: FLAG co-IP followed by Western blot, band quantification; cotransfected HEK cells; three biological replicates; parent: 1; read off a plot
chain 1 MAGAGGGNDIQWCFSQVKGAVDDDVAEADIISTVEFNHSGELLATGDKGGRVVIFQQEQENKIQSHSRGEYNVYSTFQSHEPEFDYLKSLEIEEKINKIRWLPQKNAAQFLLSTNDKTIKLWKISERDKRPEGYNLKEEDGRYRDPTTVTTLRVPVFRPMDLMVEASPRRIFANAHTYHINSISINSDYETYLSADKLRINLWHLEITDRSFNIVDIKPANMEELTEVITAAEFHPNSCNTFVYSSSKGTIRLCDMRASALCDRHSKLFEEPEDPSNRSFFSEIISSISDVKFSHSGRYMMTRDYLSVKIWDLNMENRPVETYQVHEYLRSKLCSLYENDCIFDKFECCWNGSDSVVMTGSYNNFFRMFDRNTKRDITLEASRENNKPRTVLKPRKVCASGKRKKDEISVDSLDFNKKILHTAWHPKENIIAVATTNNLYIFQDKVN [chain 1 D197K] was tested, and the ratio to parent was ~0.58. Variant chain 1 MAGAGGGNDIQWCFSQVKGAVDDDVAEADIISTVEFNHSGELLATGDEGGRVVIFQQEQENKIQSHSRGEYNVYSTFQSHEPEFDYLKSLEIEEKINKIRWLPQKNAAQFLLSTNDKTIKLWKISERDKRPEGYNLKEEDGRYRDPTTVTTLRVPVFRPMDLMVEASPRRIFANAHTYHINSISINSDYETYLSADDLRINLWHLEITDRSFNIVDIKPANMEELTEVITAAEFHPNSCNTFVYSSSKGTIRLCDMRASALCDRHSKLFEEPEDPSNRSFFSEIISSISDVKFSHSGRYMMTRDYLSVKIWDLNMENRPVETYQVHEYLRSKLCSLYENDCIFDKFECCWNGSDSVVMTGSYNNFFRMFDRNTKRDITLEASRENNKPRTVLKPRKVCASGKRKKDEISVDSLDFNKKILHTAWHPKENIIAVATTNNLYIFQDKVN [chain 1 K48E] has a ratio to parent of ~1.1. Variant chain 1 MAGAGGGNDIQWCFSQVKGAVDDDVAEADIISTVEFNHSGELLATGDKGGRVVIFQQEQENKIQSHSRGEYNVYSTFQSHEPEFDYLKSLEIEEKINKIRWLPQKNAAQFLLSTNDKTIKLWKISERDKRPEGYNLKEEDGRYRDPTTVTTLRVPVFRPMDLMVEASPRRIFANAHTAAINSISINSDYETYLSADDLRINLWHLEITDRSFNIVDIKPANMEELTEVITAAEFHPNSCNTFVYSSSKGTIRLCDMRASALCDRHSKLFEEPEDPSNRSFFSEIISSISDVKFSHSGRYMMTRDYLSVKIWDLNMENRPVETYQVHEYLRSKLCSLYENDCIFDKFECCWNGSDSVVMTGSYNNFFRMFDRNTKRDITLEASRENNKPRTVLKPRKVCASGKRKKDEISVDSLDFNKKILHTAWHPKENIIAVATTNNLYIFQDKVN [chain 1 Y178A, chain 1 H179A] has a ratio to parent of ~0.28. In the case of chain 1 MAGAGGGNDIQWCFSQVKGAVDDDVARADIISTVEFNHSGELLATGDKGGRVVIFQQEQENKIQSHSRGEYNVYSTFQSHEPEFDYLKSLEIEEKINKIRWLPQKNAAQFLLSTNDKTIKLWKISERDKRPEGYNLKEEDGRYRDPTTVTTLRVPVFRPMDLMVEASPRRIFANAHTYHINSISINSDYETYLSADDLRINLWHLEITDRSFNIVDIKPANMEELTEVITAAEFHPNSCNTFVYSSSKGTIRLCDMRASALCDRHSKLFEEPEDPSNRSFFSEIISSISDVKFSHSGRYMMTRDYLSVKIWDLNMENRPVETYQVHEYLRSKLCSLYENDCIFDKFECCWNGSDSVVMTGSYNNFFRMFDRNTKRDITLEASRENNKPRTVLKPRKVCASGKRKKDEISVDSLDFNKKILHTAWHPKENIIAVATTNNLYIFQDKVN [chain 1 E27R], the ratio to parent is reported as ~1.2. chain 1 MAGAGGGNDIQWCFSQVKGAVDDDVAEADIISTVEFNHSGELLATGDKGGRVVIFQQEQENKIQSHSRGEYNVYSTFQSHEPEFDYLKSLEIEEKINKIRWLPQKNAAQFLLSTNDKTIKLWKISERDKRPEGYNLKEEDGRYRDPTTVTTLRVPVFRPMDLMVEASPRRIFANAHTYHINSISINSDYETYLSADDLRINLWHLEITDRSFNIVDIKPANMEELTEVITAAEFHPNSCNTFVYSSSKGTIRLCDMRASALCDRHSKLFEEPEDPSNRSFFSEIISSISDVKFSHSGRYMMTRDYLSVKIWDLNMENRPVETYQVHEYLRSKLCSLYENDCIFDEFECCWNGSDSVVMTGSYNNFFRMFDRNTKRDITLEASRENNKPRTVLKPRKVCASGKRKKDEISVDSLDFNKKILHTAWHPKENIIAVATTNNLYIFQDKVN [chain 1 K345E] showed a ratio to parent of ~0.36. chain 1 MAGAGGGNDIQWCFSQVKGAVDDDVAEADIISTVEFNHSGELLATGDKGGRVVIFQQEQENKIQSHSRGEYNVYSTFQSHEPEFDYLKSLEIAAAINKIRWLPQKNAAQFLLSTNDKTIKLWKISERDKRPEGYNLKEEDGRYRDPTTVTTLRVPVFRPMDLMVEASPRRIFANAHTYHINSISINSDYETYLSADDLRINLWHLEITDRSFNIVDIKPANMEELTEVITAAEFHPNSCNTFVYSSSKGTIRLCDMRASALCDRHSKLFEEPEDPSNRSFFSEIISSISDVKFSHSGRYMMTRDYLSVKIWDLNMENRPVETYQVHEYLRSKLCSLYENDCIFDKFECCWNGSDSVVMTGSYNNFFRMFDRNTKRDITLEASRENNKPRTVLKPRKVCASGKRKKDEISVDSLDFNKKILHTAWHPKENIIAVATTNNLYIFQDKVN [chain 1 E93A, chain 1 E94A, chain 1 K95A] was tested, and the ratio to parent was ~0.4.
